These results are taken from patent publication US20140178394A1.

The experiment has as its target HLA-A*0201 HLA class I MHC monomer (iTopia Epitope Discovery System, coated on plate) (human). Description: overall rank from iTopia EDS and CEM T2 assays on HLA-A*0201.

B1: reference peptide 513 (NY-ESO-1), … (peptide)
peptide: SLLMWITQV
modifications: not checked
In the case of B1, the RANK F-Score was 2.
